Data reported in US20110039770A1, “INHIBITORS OF PROTEIN KINASE C ISOFORMS AND USES THEREOF” (PHARMAGAP INC., priority 2005, published 2011).
Where a SMILES comes first, the peptide text is derived from it. [ ]: non-standard residue; d: D form.

Target: T1, PKC-ε (Homo sapiens, UniProt Q02156)
T1 sequence (Q02156 1-737): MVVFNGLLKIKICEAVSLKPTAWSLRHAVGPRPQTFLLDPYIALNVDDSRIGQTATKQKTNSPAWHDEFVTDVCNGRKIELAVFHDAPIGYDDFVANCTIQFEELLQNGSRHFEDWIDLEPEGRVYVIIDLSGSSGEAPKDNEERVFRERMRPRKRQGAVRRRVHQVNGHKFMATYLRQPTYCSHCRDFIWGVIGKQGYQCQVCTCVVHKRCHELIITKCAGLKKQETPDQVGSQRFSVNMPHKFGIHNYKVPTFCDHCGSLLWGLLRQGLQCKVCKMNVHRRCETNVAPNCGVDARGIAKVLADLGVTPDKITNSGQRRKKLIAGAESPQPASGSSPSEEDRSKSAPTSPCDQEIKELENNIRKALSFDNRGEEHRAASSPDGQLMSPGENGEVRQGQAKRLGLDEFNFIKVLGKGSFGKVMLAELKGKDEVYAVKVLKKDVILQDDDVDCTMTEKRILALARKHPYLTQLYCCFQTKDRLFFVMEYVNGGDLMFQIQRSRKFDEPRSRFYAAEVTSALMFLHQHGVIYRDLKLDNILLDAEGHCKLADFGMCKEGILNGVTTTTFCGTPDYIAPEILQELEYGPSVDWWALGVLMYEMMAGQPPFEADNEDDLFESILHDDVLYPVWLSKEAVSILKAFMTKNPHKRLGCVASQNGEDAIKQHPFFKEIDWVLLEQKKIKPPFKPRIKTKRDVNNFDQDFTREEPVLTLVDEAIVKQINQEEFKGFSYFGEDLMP
Assay: ELISA-based competitive binding assay with purified PKC isoform
Set-up: key to Affinity for PKC isoform ε: —: no detectable affinity; Low to very low affinity at 10X or 20X or both PRE concentrations in at least one cell line in the cell extract assay; Low affinity in purified isoform assay.; Moderate affinity at 10X or 20X or both PRE concentrations in at least one cell line in the cell extract assay.; High affinity at 10X or 20X or both PRE concentrations in at least one cell line in the cell extract assay; High affinity in purified isoform assay
Conditions: for Affinity for PKC isoform ε: Purified isoform; for inhibition at 50 µM / inhibition at 100 µM / calculated binding capacity (100-% n, DMSO apparent binding subtracted): purified PKC-ε; for inhibition at 50 µM / inhibition at 100 µM: read-out: calculated binding capacity (100-% n, DMSO apparent binding subtracted)
Protocol: Peptides PRE 1, 2, 3, 4, 5, 6, 7, 8, 9, 10, 11, 12 and 13 (see Table 3) were tested for their ability to interfere with binding of PKC isoform-specific antibodies to their target PKC isoforms using a competitive binding assay and purified PKC isoforms.
Procedure: Competitive binding was assessed using a 96 well plate ELISA-based assay as described below.
Greiner 96 well ELISA plates were coated with the appropriate PKC isoform diluted in PBSN (PBS with Calcium/Magnesium+0.05% Sodium azide w/w). 50 μL/well at 250 ng/mL was used. Control wells contained PBSN only. Plates were incubated overnight at 4° C.
The plates were washed 3 times with 200 μL of dH2O per well, then 100 μL of blocking solution was added per well and the plate incubated for 1 h at 37° C. The washing steps with dH2O were repeated and 50 μL of the appropriate PRE solution (PRE stock solution [20 mM in DMSO] diluted in PBSN) was added and the plate incubated for 1 h at room temperature.
After incubation, 5 μL of 1.1:400 anti-PKC (isoform specific antibody) was added per well (to provide a final concentration of 1:4000). For PKC-epsilon, 1.1:800 dilution was used and for PKC-zeta a 1.1:100 dilution was used due to high and low binding affinity, respectively. The plates were then incubated 1 h at room temperature, followed by washing with dH2O as described above.
50 μL of 1:1000 dilution of Alkaline Phosphatase (AP) conjugated antibody (anti-rabbit for all except zeta, which was anti-goat) was then added and the plate incubated for 1 h at room temperature. Washing with dH2O was then repeated. Finally, 100 μL of pNPP solution in pNPP buffer (2 mM MgCl2, 100 mM Sodium bicarbonate in water, pH 9.8) was added to all wells and incubated for 8 minutes for α, βI, βII ε, and ζ, or for 15-20 mins for δ (until sufficient coloration is observed). The reaction was stopped by addition of Stop solution (2N NaOH) and the absorbance at 405 nm was read on a Galaxy Plate reader.
Controls were PKC without PRE; blank controls, and controls containing the final concentrations of DMSO used for solubilizing the PREs. The non-specific binding capacity related to DMSO was also measured.
The antibodies used were as follows: anti-PKC α (Cat. No. SC-208); anti-PKC βI (Cat. No. SC-209); anti-PKC βII (Cat. No. SC-210); anti-PKC δ (Cat. No. SC-213); anti-PKC ε (Cat. No. SC-214); anti-PKC ζ (Cat. No. SC-216-G) (all from Santa Cruz Biotechnology, Inc.). The AP-conjugated antibodies were obtained from Jackson Immuno Research Laboratories (West Grove, Pa.).
Calculations: The OD values measured at 405 nm represent the free PKC coated per well.
OD405 PKC alone−Blank OD405 of each sample=OD405 coated isoform
(OD405 of sample X/OD405 coated isoform)×100=% n that represents the percentage of X binding compared to control.
100-% n measures the relative binding capacity of X towards the tested isoform.
The apparent binding capacity of the DMSO samples was then subtracted from X binding capacity.
All measurements were made in triplicate and the values in the table represent the averaged calculated binding capacity values after subtraction of the DMSO apparent binding capacity (averaged from 12 values, respectively 10.80, 11.20 and 16.40 corresponding to the concentrations of DMSO used to dilute the […] at 200, 100 and 50 μM respectively). The results allow for quantitative comparison of the binding capacity of each PRE towards an individual isoform within each table, but not among isoforms due to differences in sensitivity of the specific antibodies toward the secondary antibody. This applies particularly to PKC-delta. As noted above, the colour development duration was increased 2-3 times and, as a result, the OD405 measurements may be overestimated for this isoform.

Molecule	Affinity for PKC isoform ε	also measured
CC[C@H](C)[C@H](NC(=O)[C@H](CO)NC(=O)[C@@H](NC(=O)CNC(=O)[C@@H](NC(=O)[C@H](CC(C)C)NC(=O)[C@H](CC(N)=O)NC(=O)[C@H](CCC(N)=O)NC(=O)[C@H](C)NC(=O)[C@H](CC(=O)O)NC(=O)CNC(=O)CNC(=O)[C@H](CCCCN)NC(=O)[C@@H](NC(=O)[C@H](CCC(=O)O)NC(=O)[C@H](CCC(N)=O)NC(=O)[C@@H](NC(=O)CNC(=O)[C@H](CCCCN)NC(=O)[C@H](C)NC(C)=O)[C@@H](C)CC)C(C)C)[C@@H](C)CC)[C@@H](C)CC)C(N)=O [PRE 3] (Ac-AKGIQEVKGGDAQNLIGISI-NH2)	H	
Ac-KDAQNLI-NH2 [PRE 12]	—	
Ac-RDAQNLI-NH2 [PRE 13]	—	
Ac-RDAQNLIGISI-NH2 [PRE 11]	L	
ILEDKGGDAQNLIGISI [PRE 8]	—	

More lines, main results first:

Affinity for PKC isoform ε	Molecule	also measured
—	CC[C@H](C)[C@H](NC(=O)[C@H](CO)NC(=O)[C@@H](NC(=O)CNC(=O)[C@@H](NC(=O)[C@H](CC(C)C)NC(=O)[C@H](CC(N)=O)NC(=O)[C@H](CCC(N)=O)NC(=O)[C@H](C)NC(=O)[C@H](CC(=O)O)NC(=O)[C@H](CCCCN)NC(C)=O)[C@@H](C)CC)[C@@H](C)CC)C(N)=O [PRE 4, Ac-KDAQNLIGISI-NH2] (Ac-KDAQNLIGISI-NH2)	inhibition at 50 µM (PRE 50 μM): 0%; inhibition at 100 µM (PRE 100 μM): 0%
—	CC[C@H](C)[C@H](NC(=O)[C@H](CO)NC(=O)[C@@H](NC(=O)CNC(=O)[C@@H](NC(=O)[C@H](CC(C)C)NC(=O)[C@H](CC(N)=O)NC(=O)[C@H](CCC(N)=O)NC(=O)[C@H](C)NC(=O)[C@H](CC(=O)O)NC(=O)[C@H](CCCCN)NC(=O)CNC(=O)CNC(=O)[C@H](CCCCN)NC(=O)[C@@H](NC(=O)[C@H](CCC(=O)O)NC(=O)[C@H](CCC(N)=O)NC(=O)[C@@H](NC(=O)CNC(=O)[C@H](CCCCN)NC(=O)[C@H](C)NC(C)=O)[C@@H](C)CC)C(C)C)[C@@H](C)CC)[C@@H](C)CC)C(N)=O [PRE 5] (Ac-AKGIQEVKGGKDAQNLIGISI-NH2)	inhibition at 50 µM (PRE 50 μM): 0%; inhibition at 100 µM (PRE 100 μM): 0%
—	Ac-ISIGILNQADK-NH2 [PRE 10]	calculated binding capacity (100-% n, DMSO apparent binding subtracted) (PRE 50 μM): 0.91%; calculated binding capacity (100-% n, DMSO apparent binding subtracted) (PRE 200 μM): 1.75%
L	Ac-ISIGILQNADK-NH2 (not fully specified; printed as Ac-ISIGILQNADK-NH2) [PRE 7]	
—	Ac-KDANQLIGISI-NH2 [PRE 6]	calculated binding capacity (100-% n, DMSO apparent binding subtracted) (PRE 50 μM): 2.61%; calculated binding capacity (100-% n, DMSO apparent binding subtracted) (PRE 100 μM): 0.46%
L	Ac-isigilqnadk-NH2 (Ac-[dI][dS][dI]G[dI][dL][dQ][dN][dA][dD][dK]-NH2; SMILES CC[C@@H](C)[C@@H](NC(C)=O)C(=O)N[C@H](CO)C(=O)N[C@@H](C(=O)NCC(=O)N[C@@H](C(=O)N[C@H](CC(C)C)C(=O)N[C@H](CCC(N)=O)C(=O)N[C@H](CC(N)=O)C(=O)N[C@H](C)C(=O)N[C@H](CC(=O)O)C(=O)N[C@H](CCCCN)C(N)=O)[C@H](C)CC)[C@H](C)CC) [PRE 9]	calculated binding capacity (100-% n, DMSO apparent binding subtracted) (PRE 50 μM): 16.35%; calculated binding capacity (100-% n, DMSO apparent binding subtracted) (PRE 100 μM): 8.53%
—	RRKKGGKDFVVKR [PRE 1]	calculated binding capacity (100-% n, DMSO apparent binding subtracted) (PRE 100 μM): 5.47%; calculated binding capacity (100-% n, DMSO apparent binding subtracted) (PRE 200 μM): 0.83%
